# Data taken from patent US20230051715A1 (MABWELL THERAPEUTICS, published 2023).
# T1: human C1s proenzyme (CompTech A103) (human, UniProt P09871 16-688)
# T1 construct: also called proenzyme human C1s (native C1s)
# T1 sequence (looked up): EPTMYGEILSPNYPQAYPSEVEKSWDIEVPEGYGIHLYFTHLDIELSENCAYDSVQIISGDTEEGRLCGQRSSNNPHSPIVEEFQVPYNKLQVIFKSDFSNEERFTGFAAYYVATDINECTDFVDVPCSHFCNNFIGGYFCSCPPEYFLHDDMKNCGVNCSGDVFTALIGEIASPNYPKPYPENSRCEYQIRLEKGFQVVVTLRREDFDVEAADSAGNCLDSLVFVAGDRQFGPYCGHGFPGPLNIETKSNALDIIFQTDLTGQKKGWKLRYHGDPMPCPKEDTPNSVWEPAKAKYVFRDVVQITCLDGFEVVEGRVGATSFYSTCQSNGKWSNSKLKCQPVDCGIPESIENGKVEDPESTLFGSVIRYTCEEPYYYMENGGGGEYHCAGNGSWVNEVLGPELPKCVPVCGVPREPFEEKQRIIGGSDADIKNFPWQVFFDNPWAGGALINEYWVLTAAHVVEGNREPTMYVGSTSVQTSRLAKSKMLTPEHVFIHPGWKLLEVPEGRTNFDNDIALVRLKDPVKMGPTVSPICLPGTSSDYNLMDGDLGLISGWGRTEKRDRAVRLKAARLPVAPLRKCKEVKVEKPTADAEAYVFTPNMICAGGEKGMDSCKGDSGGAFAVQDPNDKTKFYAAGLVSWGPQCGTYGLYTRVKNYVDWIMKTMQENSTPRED
# T2: cynomolgus monkey C1s (produced in house) (cynomolgus monkey, UniProt P09871 16-685 (human entry), limits assumed)
# T2 construct: also called CyC1s
# T2 chain: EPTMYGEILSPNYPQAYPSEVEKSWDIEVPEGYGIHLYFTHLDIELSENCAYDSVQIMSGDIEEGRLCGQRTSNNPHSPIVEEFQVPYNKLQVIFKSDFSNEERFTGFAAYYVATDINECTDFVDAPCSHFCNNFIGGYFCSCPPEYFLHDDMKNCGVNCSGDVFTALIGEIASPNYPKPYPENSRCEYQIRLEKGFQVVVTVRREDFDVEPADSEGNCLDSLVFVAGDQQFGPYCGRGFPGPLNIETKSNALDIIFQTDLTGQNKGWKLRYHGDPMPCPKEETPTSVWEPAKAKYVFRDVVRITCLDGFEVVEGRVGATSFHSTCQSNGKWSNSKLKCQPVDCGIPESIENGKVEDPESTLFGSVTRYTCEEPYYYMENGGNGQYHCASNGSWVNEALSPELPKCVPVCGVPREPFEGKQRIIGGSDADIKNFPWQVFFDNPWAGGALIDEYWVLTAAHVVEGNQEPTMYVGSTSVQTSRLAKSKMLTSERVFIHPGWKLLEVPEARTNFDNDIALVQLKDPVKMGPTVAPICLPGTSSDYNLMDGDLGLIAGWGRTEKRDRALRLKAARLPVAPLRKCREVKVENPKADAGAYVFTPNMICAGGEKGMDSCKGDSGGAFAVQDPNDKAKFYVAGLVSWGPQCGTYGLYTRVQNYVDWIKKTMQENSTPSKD
# T3: active human C1s (CompTech A104 C1s Enzyme) (human, UniProt P09871 16-688)
# T3 construct: also called human active C1s; active C1s protein
# T3 sequence (looked up): T1 sequence (looked up)
# B1: Anti-C1s antibody 2-7 (antibody, human IgG1, kappa, V domains shown)
# VH: EVKLEESGGGLVPPGGSMKLSCVASGFTFSNYFMNWVRQSPEKGLEWVAEIRLKFTNYATHYAESVEGRFTISRDDSKSSVYLQMNNLRAEDTGIYYCTRDYGSRNGYFDYWGQGTTLTVSS
# VL: DIVMTQAAPSVPVTPGESVSISCRSSKSLLHSNGNTFLYWFLQRPGQSPQLLIYRMSNLASGVPDRFSGSGSGTAFTLRVSRVEAEDVGIYYCMQHLEYPYTFGGGTKLEIKT
# notes: the HC/LC entries may hold it too; also called clone 2-7
# B2: Anti-C1s antibody 2-8 (antibody, V domains shown)
# VH: EVQLQQSGAELVRPGALVKLSCKASGFNIKEYYMHWVKQRPEQGLEWIGWIDPENGDTIYDPKFQGKASITADTSSNTAYLQLSSLTSEDTAVYYCARSRLFFAYWGQGTLVTVSA
# VL: DIVMTQSHKFMSTSVGDRVSFTCKASQDVRTAVDWYQQKPGQSPKLLIYSASYRYTGVPDRFTGTGSGTDFTFTISSVQAEDLAVYFCQQQYTTPYTFGGGTKLEIKT
# notes: the HC/LC entries may hold it too; also called clone 2-8
# B3: Anti-C1s antibody hz2-8 (H1L2 G80A/T82A) (antibody, V domains shown)
# VH: QVQLVQSGAEVKKPGASVKVSCKASGFNIKEYYMHWVRQAPEQGLEWMGWIDPENADAIYAQKFQGRVTITADTSTNTAYMELSSLRSEDTAVYYCARSRLFFAYWGQGTLVTVSS
# VL: DIQMTQSPKSLSASVGDRVTITCRASQDVRTALDWYQQKPGQSPKLLIYSASYRYSGVPSRFSGSGSGTDFTLTISSLQPEDFATYYCQQQYTTPYTFGQGTKLEIKR
# notes: Humanized variant with G80A and T82A in HC CDR2 (already in the entry), human IgG1 / kappa
# Legend:
# [1] = target: T1, human C1s proenzyme (CompTech A103); experiment: BLI (Octet RED96e), antibody on AHC biosensor; HuC1s Form: Proenzyme; R^2 0.9994
# Protocol: (§1) Bio-Layer Interferometry technology was used for anti-C1s antibody affinity measurement and binding kinetics determinations with OCTET® RED96e system (Sartorius AG). Pre-hydrated Anti-Human IgG Fc Capture (AHC) biosensors were first equilibrated in 1×KB (Kinetic Buffer, 1×PBS pH 7.4+0.02% Tween-20+0.1% BSA) for 120 sec for the first baseline, followed by loading with […] anti-C1s antibody (2-7, FIG. 3A; 2-8, FIG. 3B; hz2-7(H1L2), FIG. 3C; hz2-8(H1L2 G80A/T82A, FIG. 3D) onto AHC biosensors for 240 sec. Then, the second baseline signal was established for 120 sec before association with various concentrations of active human C1s (CompTech A104) for 240-360 sec. At last, analyte was dissociated in 1×KB for 360 sec. Anti-C1s antibodies 2-7 and 2-8 were also analyzed against human C1s proenzyme (CompTech A103) (data not shown). Data analysis was carried out using OCTET® Data Analysis HT Software (Sartorius AG). KD, kₒₙ, koff and R² values were calculated for each antibody and target combination, as summarized in FIG. 3E showing high affinity binding with KD values in the low nanomolar to picomolar range.
# [2] = target: T2, cynomolgus monkey C1s (produced in …); experiment: BLI (Octet RED96e), antibody on AHC biosensor; C1s Species: Cyno Monkey; R^2 0.9999
# Text: (§2) At last, analyte was dissociated in 1×KB for 360 sec. Data analysis was done using OCTET® Data Analysis HT Software (Sartorius AG).
# [3] = target: T3, active human C1s (CompTech A104 C1s …); experiment: BLI (Octet RED96e), antibody on AHC biosensor; HuC1s Form: Active; R^2 0.9990
# Protocol: as §1
# [4] = target: T2, cynomolgus monkey C1s (produced in …); experiment: BLI (Octet RED96e), antibody on AHC biosensor; C1s Species: Cyno Monkey; R^2 0.9993
# Text: as §2
binder,measurement,setting,value
B1,Kd,[1],140 pM
same,koff,[1],4.8e-05 s⁻¹
same,kon,[1],350000 M⁻¹ s⁻¹
same,Kd,[2],230 pM
same,koff,[2],6.5e-05 s⁻¹
same,kon,[2],280000 M⁻¹ s⁻¹
B2,Kd,[3],490 pM
same,koff,[3],0.00012 s⁻¹
same,kon,[3],250000 M⁻¹ s⁻¹
B3,Kd,[4],3500 pM
same,koff,[4],0.00081 s⁻¹
same,kon,[4],230000 M⁻¹ s⁻¹
